Entries after “also recorded” stand apart in the source; their conditions may differ.
Assays:
[1] = system: BMP signaling (p-SMAD1/5/9 versus p-SMAD2/3); settings: sb4; cited from earlier work
Text: Considering that GREM1 is a canonical antagonist of BMP and that BMPRs exert their function through phosphorylation of SMAD1/5/9 (p-SMAD1/5/9), we sought to determine whether GREM1 regulates EMT via BMPR superfamily pathways. […] This definitive exclusion of BMPR–SMAD1/5/9 involvement establish ...

HCT116 and SW480 cells = test: EMT markers by immunoblotting and RT–qPCR; type: cell-based, human; settings: GREM1-CM + GREM1 BAb, + SB505124 (1 µM) or + different concentrations of sb4 (sb4: immunoblotting)
Method: (§1) To investigate the effect of secreted GREM1 on CRC cells, an in vitro GREM1 secretion system was established using HEK293 cells. Stably GREM1-expressing cells (pcDNA3.1-GREM1) and empty-vector transfected cells (pcDNA3.1) were cultured in DMEM/F12 medium with 10% FBS until 40% confluence. After complete removal of the normal culture medium, HEK293-GREM1 and HEK293-Vec cells were continuously cultured in DMEM/F12 medium without FBS for 5 days before medium collection. GREM1 or Vector conditioned medium (GREM1-CM/Vec-CM) was then centrifuged at 1000 rpm for 30 min and the supernatant was collected for further study.
(§2) Protein was extracted from the cells with RIPA buffer (Beyotime, P0018) or NP40 lysis buffer (Beyotime, P0013F) and separated by SDS-PAGE, and transferred to polyvinylidene difluoride membranes. […] Band intensity was quantified using Fiji (ImageJ) by grayscale analysis.
(§3) Total RNA was extracted using Trizol reagent (Invitrogen, 15596026). […] The SYBR Green Premix Pro Taq HS qPCR Kit (Accurate Biology, AG11701) was then used to quantify mRNA expression according to the manufacturer’s instructions. All results were calculated using the 2^−ΔΔCt method. […]

HCT116 cells = test: Subcutaneous transplantation of GREM1-CM-pretreated HCT116 cells in nude mice; type: in vivo, human cells in nude mice; settings: subcutaneous model, HCT116 cells pretreated with GREM1-CM (Figures S8A–C)
Method: For cecum-to-liver metastasis model, 1 × 10^6 MC38-luc cells were resuspended in 50 µL of PBS and injected into the cecum of GD mice or control mice (Grem1-CreER^T2/Rosa-LSL-DTA mice) (n = 6 mice in each group); 5 × 10^6 HCT116-luc cells transduced with lentivirus carrying a pLV or pLV-GREM1 were injected into the cecum of NOG mice (n = 5 mice in each group). SB505124 was administered via intraperitoneal injection at a dose of 10 mg/kg once every other day. The metastases were examined every 5 days post injection using an IVIS Lumina Imaging System. Mice were euthanized between 2 and 6 weeks after injection. […] Mice were euthanized 4 weeks after injection. The tumor tissues were collected for further evaluation.
Figure S8. SB505124 inhibits GREM1-CM-induced EMT and metastasis of CRC in vivo. […] D, RT–qPCR analysis of epithelial marker CDH1 and mesenchymal markers CTNNB1, SNAI1, ZEB1 in subcutaneous tumor tissues from the indicated treatment groups. n = 3 independent experiments. E-G, Representative IF images (E) and quantification (F, G) of E-CAD (green), SNAIL (red), and DAPI (blue) staining in tumors from the indicated groups. […] H, I, Representative IVIS images (H) and quantification (I) of NOG mice that were injected with HCT116-luc cells in the cecum wall and treated with either SB505124 or vehicle via abdominal injection. Liver metastases were imaged and quantified using the IVIS Lumina Imaging System (n = 5 mice per group). For B–D, F, G and I, data are presented as mean ± s.e.m. P values were calculated using one-way ANOVA with Bonferroni multiple-comparison test (B–D, F, and G) or two-tailed Student’s t-test (I).

TGFβR1 = test: Co-immunoprecipitation of GREM1 and TGFβR1; type: binding, human; settings: HCT116 cells, HA-tagged GREM1, anti-HA
Method: (§4) HCT116 cells were transfected with the indicated plasmids and lysed in NP40 lysis buffer (Beyotime, P0013F) supplemented with protease inhibitor cocktail (Thermo, 78446). Lysates were incubated with the indicated Anti-Flag nanobody magarose beads (Ktsm-life, KTSM1338), Anti-HA nanobody magarose beads (Ktsm-life, KTSM1335) or Anti-GFP nanobody magarose beads (Ktsm-life, KTSM1334) overnight at 4 °C. The protein complex was washed four times with the NP40 lysis buffer, eluted with 1×loading buffer (Beyotime, P0015) by boiling for 5 min, followed by mass spectrometry and immunoblotting with the indicated antibodies.
as §2

ACVR1C-ECD = test: MST binding of ACVR1C-ECD-Fc to GREM1-His or ACTIVIN B-His; parameters: species or system human
Text: (§5) Expi293F cells were transfected with a pcDNA3.4-ACVR1C-ECD-Fc and pcDNA3.4-ACVR1C-ECD-Fc-double mutant (E85A/T101A) expression vector to produce the target protein, which was subsequently purified using a Protein G column. Briefly, the coding sequence (CDS) of the human ACVR1C extracellular domain (ACVR1C-ECD, NM_145259.3, residues 1–113) fused to an Fc tag was cloned into the pcDNA3.4 vector. Expi293F cells were transfected with this construct, the supernatant was harvested 5 days post transfection.
(§6) MST was carried out on a Monolith NT.115 instrument (NanoTemper Technologies GmbH, MO-L011). To evaluate ACVR1C-ECD or ACVR1C peptide or ACVR1C-ECD-double mutant (E85A/T101A) binding to GREM1-His or ACTIVIN B-His, an increasing concentration of purified ACVR1C-ECD-Fc protein (0–27.5 µM) or ACVR1C peptide (0–2.3 µM) or ACVR1C-ECD-double mutant (0–27.5 µM) was incubated with 50 nM red-fluorescently labeled (NanoTemper Technologies GmbH, MO-L011) GREM1-His protein (R&D, 5190-GR) or ACTIVIN B-His protein (SinoBiological, 10814-H08H). Experiments were carried out in a PBS buffer pH 7.4 using premium capillaries (NanoTemper Technologies GmbH, MO-K025).

ACVR1C = test: Co-immunoprecipitation of GREM1 and ACVR1C; type: binding, human; settings: HCT116 cells, HA-tagged GREM1, anti-HA
Method: as §4
(§7) Protein was extracted from the cells with RIPA buffer (Beyotime, P0018) or NP40 lysis buffer (Beyotime, P0013F) and separated by SDS-PAGE, and transferred to polyvinylidene difluoride membranes. Primary antibodies against GREM1 (1:1,000, SinoBiological, 50016-R117), ACVR1C (1:1,000, Thermo, PA587475), Flag-tag (1:1,000, CST, 14793), HA-tag (1:1,000, CST, 3724), E-Cadherin (1:1,000, CST, 3195), β-Catenin (1:1,000, CST, 8480), ZEB1 (1:1,000, CST, 3396), Snail (1:1,000, CST, 3879), SMAD2/3 (1:1,000, CST, 8685), p-SMAD2/3 (1:1,000, CST, 8828), SMAD1 (1:1,000, CST, 6944), p-SMAD1/5/9 (1:1,000, CST, 13820), TGFβ (1:1,000, CST, 3709), TGFβR1 (0.3 µg/mL, R&D, AF3025), β-actin (1:5,000, Beyotime, AF0003) and GAPDH (1:5,000, Beyotime, AF0006) were used in this study. Peroxidase-conjugated secondary antibody (1:10,000, Cell Signaling Technology, 7074, 7076) was used and signal was visualized using an enhanced chemiluminescence assay (ECL, Thermo), according to the manufacturer’s protocol. Band intensity was quantified using Fiji (ImageJ) by grayscale analysis.

SW480 and HCT116 cells = test: Endogenous GREM1 expression by RT–qPCR and immunoblotting; type: cell-based, human; settings: increasing concentrations of rhGREM1, RT–qPCR (n = 3) and immunoblotting
Text: as §7, §3

[2] = system: BMPR–SMAD1/5/9 pathway in HCT116 or SW480 cells; test: Immunoblotting p-SMAD1/5/9 (BMPR pathway); type: cell-based, human; settings: rhGREM1 gradient
Text: as §7

[3] = system: TGFβ or TGFβR1 in CRC cells; test: Immunoblotting TGFβ and TGFβR1 expression; type: cell-based, human; settings: CRC cells (HCT116, SW480), rhGREM1 gradient
Text: as §7

[4] = system: ACVR1C–SMAD2/3 pathway in HCT116 and SW480 cells; test: Immunoblotting p-SMAD2/3 (ACVR1C pathway); type: cell-based, human; settings: SW480 and HCT116 cells, increasing concentrations of rhGREM1
Method: as §1, §2

[5] = system: CRC cells (SW480, HCT116, and MC38); test: GREM1 withdrawal assay, RT–qPCR and immunoblot; type: cell-based, human (SW480, mouse (MC38); settings: rhGREM1 or rmGrem1 200 ng/mL 24 h, then GREM1-free medium 2 and 4 days
Method: To determine whether tumor cells that have acquired signaling autonomy can sustain GREM1 expression in the absence of external stimulation, we performed a GREM1 withdrawal assay. CRC cells (SW480, HCT116, and MC38) were first pulsed with rhGREM1 or recombinant mouse GREM1 (rmGrem1) for 24 h to initiate the signaling response. The medium containing rhGREM1 or rmGrem1 was then thoroughly removed, replaced with fresh GREM1-free medium, and the cells were cultured for an additional 4 days. […] This persistent, self-sustaining expression supports our conclusion that the initial rhGREM1 or rmGrem1 stimulation triggers a positive feedback loop of GREM1 transcription within CRC cells.
as §2, §3

GREM1 = molecular target: T1, GREM1 (Homo sapiens, UniProt O60565); test: MST binding of ACVR1C-ECD double mutant (E85A/T101A) to GREM1-His; settings: double mutant 0–27.5 µM vs 50 nM red-labeled GREM1-His, PBS pH 7.4
T1 construct: His; purchased R&D 5190-GR
T1 sequence (O60565 25-184): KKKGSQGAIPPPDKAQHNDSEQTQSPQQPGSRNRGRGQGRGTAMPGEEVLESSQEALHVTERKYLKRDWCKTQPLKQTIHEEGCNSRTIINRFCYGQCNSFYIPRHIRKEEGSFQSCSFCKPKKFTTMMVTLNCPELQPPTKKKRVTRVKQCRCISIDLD
Text: as §5, §6

Brc1ccc(CSc2nc3ccccc3o2)cc1 [sb4]
p-SMAD1/5/9 selectivity [1]: exclusively increases p-SMAD1/5/9 without affecting p-SMAD2/3 | GREM1-CM-induced EMT, effect of treatment (HCT116 and SW480 cells): failed to reverse GREM1-induced EMT

B1: GREM1: GREM1-His protein (R&D, 5190-GR) in MST; HA-tagged GREM1 in co-IP (protein)
chain: T1 sequence (O60565 25-184)
modifications: left off: HA, end not stated, kept | mCherry, end not stated, kept
notes: GREM1-His protein (R&D, 5190-GR) in MST; HA-tagged GREM1 in co-IP
effect on subcutaneous tumor proliferation (HCT116 cells): pro-proliferative effect | co-IP interaction with TGFβR1 (TGFβR1): no such interaction was detected; also recorded: no direct interaction | affinity for ACVR1C relative to ACTIVIN B, in words (ACVR1C-ECD): superior affinity | fold higher affinity for ACVR1C-ECD than ACTIVIN B (ACVR1C-ECD; GREM1 Kd versus ACTIVIN B Kd): 12.6 fold | Kd (ACVR1C-ECD; Monolith NT.115, ACVR1C-ECD-Fc 0–27.5 µM vs 50 nM red-fluorescently labeled His-protein, PBS pH 7.4, premium capillaries, n = 3 independent experiments, mean ± s.e.m.): 67.7 ± 10.3 nM | co-IP interaction with ACVR1C (ACVR1C): co-immunoprecipitates with ACVR1C; also recorded: interacted with ACVR1C specifically

B2: rhGREM1: recombinant human GREM1 (protein)
chain: T1 sequence (O60565 25-184)
modifications: red fluorescent label (NanoTemper, MO-L011) in the MST assays; left off: His, end not stated, kept
notes: recombinant human GREM1
endogenous GREM1 expression (SW480 and HCT116 cells): dose-dependent upregulation of tumor GREM1 expression | p-SMAD1/5/9 [2]: suppressed the p-SMAD1/5/9 | TGFβ or TGFβR1 expression [3]: No changes were observed across all doses tested | p-SMAD2/3, concentration gradient [4]: dose-dependent increase in p-SMAD2/3 | endogenous GREM1 expression after withdrawal [5]: not only maintained but in some cases further increased even after the withdrawal of exogenous GREM1; also recorded: maintained elevated endogenous GREM1 expression even after withdrawal of exogenous GREM1

B3: ACVR1C-ECD double mutant (E85A/T101A): human ACVR1C extracellular domain fused to an Fc tag, double mutant E85A/T101A (protein)
chain: ELSPGLKCVCLLCDSSNFTCQTEGACWASVMLTNGKEQVIKSCVSLPELNAQVFCHSSNNVTKTACCFTDFCNNITLHLPAASPNAPKLGPME
modifications: left off: Fc, end not stated, kept
binding of ACVR1C-ECD double mutant to GREM1 (GREM1): no detectable interaction
